Reference: patent publication US20250313612A1

Legend:
[1] = biological target: RSV F protein of subtype A (strain A2) on recombinant mKate-RSV (Respiratory syncytial virus subtype A (strain A2)) (UniProt P03420); test: cell-based or functional assay
[2] = biological target: human metapneumovirus (HMPV) F protein on GFP-expressing hMPV (NL/1/00, A1 sublineage) (human metapneumovirus); test: cell-based or functional assay

Sequence of RSV F protein of subtype A (strain A2) on recombinant mKate-RSV (Respiratory syncytial virus subtype A (strain A2)) (P03420 26-574): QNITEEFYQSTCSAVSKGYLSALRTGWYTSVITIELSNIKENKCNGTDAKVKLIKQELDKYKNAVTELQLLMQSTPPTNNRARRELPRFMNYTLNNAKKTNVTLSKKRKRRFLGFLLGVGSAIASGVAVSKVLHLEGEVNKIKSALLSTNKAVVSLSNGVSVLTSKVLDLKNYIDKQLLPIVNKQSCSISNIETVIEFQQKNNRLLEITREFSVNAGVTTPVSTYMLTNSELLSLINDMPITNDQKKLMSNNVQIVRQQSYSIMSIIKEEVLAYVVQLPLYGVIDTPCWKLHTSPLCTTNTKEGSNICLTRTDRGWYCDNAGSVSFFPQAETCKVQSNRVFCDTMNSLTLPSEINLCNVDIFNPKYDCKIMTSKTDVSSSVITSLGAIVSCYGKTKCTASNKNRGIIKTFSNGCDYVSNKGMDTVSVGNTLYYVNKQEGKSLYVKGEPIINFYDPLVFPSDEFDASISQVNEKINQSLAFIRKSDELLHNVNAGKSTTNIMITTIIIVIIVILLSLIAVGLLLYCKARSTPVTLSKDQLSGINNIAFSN

MPE8 (antibody)
RSV-A2 IC50 [1]: 0.04 mg/L
HMPV-A1 IC50 [2]: 0.07 mg/L
